Experimental data reported in paper PMC3615468 (Nature Communications, 2013).

Target: the molecule itself
Assay: SEC

B1: Recombinant CIDE-N domain of mouse Fsp27 (a.a. 39-119) (domain or fragment, UniProt P56198 39-119, looked up)
chain: TPRARPCRVSTADRKVRKGIMAHSLEDLLNKVQDILKLKDKPFSLVLEEDGTIVETEEYFQALAKDTMFMVLLKGQKWKPP
stoichiometry N: 2
